# According to the supplement of paper PMC10567573:
# B1: ZNF649 (parent)
# chain: LVAHQRYHTGKTPFVCPECGQPCS
# Variants of: B1
# Assay: protein stability index of a GFP-peptide fusion (GPS, HEK-293T) (PSI 1-6); higher = more stable
# Settings: c terminus: a fixed tail appended
# 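Further: lentivirally expressed fusions sorted by FACS into six bins by GFP to DsRed ratio, PSI derived from sequencing read proportions per bin multiplied by bin number.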
row,Variant,protein stability index
1,LVAHQRYSTGKTPFVCPECGQPCS,2.93
2,LVAHQRYYTGKTPFVCPECGQPCS,2.69
3,LVAHQRYKTGKTPFVCPECGQPCS,2.57
4,LVAHQRYMTGKTPFVCPECGQPCS,2.75
5,LVAHQRYLTGKTPFVCPECGQPCS,2.93
6,LVAHQRYCTGKTPFVCPECGQPCS,3.05
7,LVAHQRYATGKTPFVCPECGQPCS,3.1
8,LVAHQRYNTGKTPFVCPECGQPCS,3.18
9,LVAHQRYPTGKTPFVCPECGQPCS,3.67
10,LVAHQRYTTGKTPFVCPECGQPCS,3.26
11,LVAHQRYQTGKTPFVCPECGQPCS,3.59
12,LVAHQRYGTGKTPFVCPECGQPCS,2.52
13,LVAHQRYVTGKTPFVCPECGQPCS,3.77
14,LVAHQRYITGKTPFVCPECGQPCS,3.21
15,LVAHQRYDTGKTPFVCPECGQPCS,3.54
16,LVAHQRYRTGKTPFVCPECGQPCS,2.53
17,LVAHQRYETGKTPFVCPECGQPCS,3.13
18,LVAHQRYWTGKTPFVCPECGQPCS,2.57
19,LVAHQRYFTGKTPFVCPECGQPCS,2.49
20,LVAHQRYHTDKTPFVCPECGQPCS,3.96
21,LVAHQRYHTSKTPFVCPECGQPCS,2.4
22,LVAHQRYHTIKTPFVCPECGQPCS,3.5
23,LVAHQRYHTNKTPFVCPECGQPCS,3.37
24,LVAHQRYHTKKTPFVCPECGQPCS,2.83

row,Variant,protein stability index
1,LVAHQRYHTFKTPFVCPECGQPCS,3.44
2,LVAHQRYHTLKTPFVCPECGQPCS,3.64
3,LVAHQRYHTWKTPFVCPECGQPCS,3.9
4,LVAHQRYHTMKTPFVCPECGQPCS,3.44
5,LVAHQRYHTYKTPFVCPECGQPCS,2.82
6,LVAHQRYHTTKTPFVCPECGQPCS,3.01
7,LVAHQRYHTPKTPFVCPECGQPCS,3.09
8,LVAHQRYHTRKTPFVCPECGQPCS,2.78
9,LVAHQRYHTHKTPFVCPECGQPCS,3.24
10,LVAHQRYHTCKTPFVCPECGQPCS,3.44
11,LVAHQRYHTAKTPFVCPECGQPCS,3.15
12,LVAHQRYHTVKTPFVCPECGQPCS,2.85
13,LVAHQRYHTEKTPFVCPECGQPCS,3.57
14,LVAHQRYHTQKTPFVCPECGQPCS,3.28
15,LVAHQRYHTGKTNFVCPECGQPCS,3.64
16,LVAHQRYHTGKTDFVCPECGQPCS,3.46
17,LVAHQRYHTGKTSFVCPECGQPCS,3.65
18,LVAHQRYHTGKTFFVCPECGQPCS,2.8
19,LVAHQRYHTGKTKFVCPECGQPCS,3.36
20,LVAHQRYHTGKTYFVCPECGQPCS,3.26
21,LVAHQRYHTGKTEFVCPECGQPCS,3.7
22,LVAHQRYHTGKTGFVCPECGQPCS,2.94
23,LVAHQRYHTGKTVFVCPECGQPCS,3.32
24,LVAHQRYHTGKTTFVCPECGQPCS,4.15

row,Variant,protein stability index
1,LVAHQRYHTGKTQFVCPECGQPCS,3.32
2,LVAHQRYHTGKTRFVCPECGQPCS,3.31
3,LVAHQRYHTGKTWFVCPECGQPCS,3.63
4,LVAHQRYHTGKTAFVCPECGQPCS,2.94
5,LVAHQRYHTGKTLFVCPECGQPCS,2.62
6,LVAHQRYHTGKTCFVCPECGQPCS,2.71
7,LVAHQRYHTGKTMFVCPECGQPCS,3.27
8,LVAHQRYHTGKTHFVCPECGQPCS,3.36
9,LVAHQRYHTGKTIFVCPECGQPCS,2.76
10,LVAHQRYHRGKTPFVCPECGQPCS,2.76
11,LVAHQRYHHGKTPFVCPECGQPCS,2.6
12,LVAHQRYHMGKTPFVCPECGQPCS,3.16
13,LVAHQRYHLGKTPFVCPECGQPCS,2.92
14,LVAHQRYHNGKTPFVCPECGQPCS,3.05
15,LVAHQRYHCGKTPFVCPECGQPCS,2.65
16,LVAHQRYHSGKTPFVCPECGQPCS,3.1
17,LVAHQRYHPGKTPFVCPECGQPCS,2.88
18,LVAHQRYHAGKTPFVCPECGQPCS,2.77
19,LVAHQRYHEGKTPFVCPECGQPCS,3.7
20,LVAHQRYHGGKTPFVCPECGQPCS,3.53
21,LVAHQRYHIGKTPFVCPECGQPCS,3.77
22,LVAHQRYHKGKTPFVCPECGQPCS,2.52
23,LVAHQRYHVGKTPFVCPECGQPCS,3.06
24,LVAHQRYHWGKTPFVCPECGQPCS,2.9

row,Variant,protein stability index
1,LVAHQRYHQGKTPFVCPECGQPCS,3.31
2,LVAHQRYHFGKTPFVCPECGQPCS,3.62
3,LVAHQRYHYGKTPFVCPECGQPCS,3.31
4,LVAHQRYHDGKTPFVCPECGQPCS,3.77
5,LVAHQRYHTGKVPFVCPECGQPCS,3.13
6,LVAHQRYHTGKWPFVCPECGQPCS,2.96
7,LVAHQRYHTGKQPFVCPECGQPCS,2.68
8,LVAHQRYHTGKHPFVCPECGQPCS,2.56
9,LVAHQRYHTGKEPFVCPECGQPCS,3.86
10,LVAHQRYHTGKFPFVCPECGQPCS,2.77
11,LVAHQRYHTGKIPFVCPECGQPCS,3.7
12,LVAHQRYHTGKAPFVCPECGQPCS,3.49
13,LVAHQRYHTGKRPFVCPECGQPCS,2.91
14,LVAHQRYHTGKLPFVCPECGQPCS,2.96
15,LVAHQRYHTGKNPFVCPECGQPCS,3.39
16,LVAHQRYHTGKPPFVCPECGQPCS,3.2
17,LVAHQRYHTGKYPFVCPECGQPCS,3.02
18,LVAHQRYHTGKDPFVCPECGQPCS,3.06
19,LVAHQRYHTGKKPFVCPECGQPCS,3.15
20,LVAHQRYHTGKSPFVCPECGQPCS,3.5
21,LVAHQRYHTGKGPFVCPECGQPCS,3.04
22,LVAHQRYHTGKCPFVCPECGQPCS,3.01
23,LVAHQRYHTGKMPFVCPECGQPCS,3.12
24,LVAHQPYHTGKTPFVCPECGQPCS,3.65

row,Variant,protein stability index
1,LVAHQAYHTGKTPFVCPECGQPCS,3.46
2,LVAHQSYHTGKTPFVCPECGQPCS,3.96
3,LVAHQCYHTGKTPFVCPECGQPCS,4.33
4,LVAHQHYHTGKTPFVCPECGQPCS,4.1
5,LVAHQMYHTGKTPFVCPECGQPCS,3.19
6,LVAHQEYHTGKTPFVCPECGQPCS,3.74
7,LVAHQVYHTGKTPFVCPECGQPCS,2.98
8,LVAHQTYHTGKTPFVCPECGQPCS,3.48
9,LVAHQIYHTGKTPFVCPECGQPCS,3.12
10,LVAHQYYHTGKTPFVCPECGQPCS,3.12
11,LVAHQGYHTGKTPFVCPECGQPCS,3.86
12,LVAHQLYHTGKTPFVCPECGQPCS,2.93
13,LVAHQKYHTGKTPFVCPECGQPCS,3.44
14,LVAHQDYHTGKTPFVCPECGQPCS,3.58
15,LVAHQFYHTGKTPFVCPECGQPCS,2.69
16,LVAHQQYHTGKTPFVCPECGQPCS,3.6
17,LVAHQWYHTGKTPFVCPECGQPCS,3.1
18,LVAHQNYHTGKTPFVCPECGQPCS,3.37
19,LVAHVRYHTGKTPFVCPECGQPCS,1.89
20,LVAHYRYHTGKTPFVCPECGQPCS,2.74
21,LVAHTRYHTGKTPFVCPECGQPCS,3.07
22,LVAHWRYHTGKTPFVCPECGQPCS,1.16
23,LVAHQRYHTGKTPFLCPECGQPCS,3.2
24,LVAHQRYHTGKTPFDCPECGQPCS,3.83

row,Variant,protein stability index
1,LVAHQRYHTGKTPFNCPECGQPCS,3.51
2,LVAHQRYHTGKTPFICPECGQPCS,2.74
3,LVAHQRYHTGKTPFHCPECGQPCS,2.4
4,LVAHQRYHTGKTPFCCPECGQPCS,2.88
5,LVAHQRYHTGKTPFACPECGQPCS,3.33
6,LVAHQRYHTGKTPFECPECGQPCS,3.66
7,LVAHQRYHTGKTPFPCPECGQPCS,3.77
8,LVAHQRYHTGKTPFMCPECGQPCS,3.3
9,LVAHQRYHTGKTPFKCPECGQPCS,2.42
10,LVAHQRYHTGKTPFFCPECGQPCS,2.76
11,LVAHQRYHTGKTPFGCPECGQPCS,3.03
12,LVAHQRYHTGGTPFVCPECGQPCS,3.45
13,LVAHQRYHTGTTPFVCPECGQPCS,3.19
14,LVAHQRYHTGDTPFVCPECGQPCS,3.45
15,LVAHQRYHTGETPFVCPECGQPCS,3.67
16,LVAHQRYHTGLTPFVCPECGQPCS,3.49
17,LVAHQRYHTGQTPFVCPECGQPCS,3.67
18,LVAHQRYHTGMTPFVCPECGQPCS,3.31
19,LVAHQRYHTGITPFVCPECGQPCS,3.31
20,LVAHQRYHTGWTPFVCPECGQPCS,2.91
21,LVAHQRYHTGYTPFVCPECGQPCS,3.07
22,LVAHQRYHTGSTPFVCPECGQPCS,3.77
23,LVAHQRYHTGPTPFVCPECGQPCS,3.06
24,LVAHQRYHTGHTPFVCPECGQPCS,3.35

row,Variant,protein stability index
1,LVAHQRYHTGNTPFVCPECGQPCS,3.48
2,LVAHQRYHTGFTPFVCPECGQPCS,2.81
3,LVAHQRYHTGVTPFVCPECGQPCS,4.02
4,LVAHQRYHTGCTPFVCPECGQPCS,3.39
5,LVAHQRYHTGATPFVCPECGQPCS,3.98
6,LVAHQRYHTGRTPFVCPECGQPCS,3.75
7,LVAHQRYHTGKTPCVCPECGQPCS,3.65
8,LVAHQRYHTGKTPNVCPECGQPCS,3.7
9,LVAHQRYHTGKTPMVCPECGQPCS,3.25
10,LVAHQRYHTGKTPIVCPECGQPCS,3.61
11,LVAHQRYHTGKTPGVCPECGQPCS,4.1
12,LVAHQRYHTGKTPRVCPECGQPCS,3.38
13,LVAHQRYHTGKTPHVCPECGQPCS,3.02
14,LVAHQRYHTGKTPPVCPECGQPCS,3.58
15,LVAHQRYHTGKTPTVCPECGQPCS,4.22
16,LVAHQRYHTGKTPKVCPECGQPCS,3.28
17,LVAHQRYHTGKTPDVCPECGQPCS,4.18
18,LVAHQRYHTGKTPWVCPECGQPCS,3.1
19,LVAHQRYHTGKTPAVCPECGQPCS,3.94
20,LVAHQRYHTGKTPSVCPECGQPCS,3.93
21,LVAHQRYHTGKTPYVCPECGQPCS,3
22,LVAHQRYHTGKTPQVCPECGQPCS,3.38
23,LVAHQRYHTGKTPEVCPECGQPCS,4.44
24,LVAHQRYHTGKTPVVCPECGQPCS,3.81

row,Variant,protein stability index
1,LVAHQRYHTGKTPLVCPECGQPCS,3.7
2,LVAHQRDHTGKTPFVCPECGQPCS,4.17
3,LVAHQRIHTGKTPFVCPECGQPCS,3.21
4,LVAHQRAHTGKTPFVCPECGQPCS,3.83
5,LVAHQRFHTGKTPFVCPECGQPCS,3.2
6,LVAHQRNHTGKTPFVCPECGQPCS,3.73
7,LVAHQRQHTGKTPFVCPECGQPCS,4.14
8,LVAHQRCHTGKTPFVCPECGQPCS,2.59
9,LVAHQRMHTGKTPFVCPECGQPCS,3.67
10,LVAHQRTHTGKTPFVCPECGQPCS,3.28
11,LVAHQRPHTGKTPFVCPECGQPCS,4.04
12,LVAHQRHHTGKTPFVCPECGQPCS,3.56
13,LVAHQRKHTGKTPFVCPECGQPCS,3.31
14,LVAHQRWHTGKTPFVCPECGQPCS,2.38
15,LVAHQRLHTGKTPFVCPECGQPCS,2.93
16,LVAHQRVHTGKTPFVCPECGQPCS,3.44
17,LVAHQREHTGKTPFVCPECGQPCS,4.45
18,LVAHQRGHTGKTPFVCPECGQPCS,3.68
19,LVAHQRSHTGKTPFVCPECGQPCS,3.18
20,LVAHQRRHTGKTPFVCPECGQPCS,2.75
